For this series, the target named is Factor X (FX), P00742.

Several values for one entry are separate records, joined by “and”; a condition that tells them apart may be missing. Identical values can stand only once.

Sequence of Factor X (FX), P00742 (P00742 whole entry, looked up): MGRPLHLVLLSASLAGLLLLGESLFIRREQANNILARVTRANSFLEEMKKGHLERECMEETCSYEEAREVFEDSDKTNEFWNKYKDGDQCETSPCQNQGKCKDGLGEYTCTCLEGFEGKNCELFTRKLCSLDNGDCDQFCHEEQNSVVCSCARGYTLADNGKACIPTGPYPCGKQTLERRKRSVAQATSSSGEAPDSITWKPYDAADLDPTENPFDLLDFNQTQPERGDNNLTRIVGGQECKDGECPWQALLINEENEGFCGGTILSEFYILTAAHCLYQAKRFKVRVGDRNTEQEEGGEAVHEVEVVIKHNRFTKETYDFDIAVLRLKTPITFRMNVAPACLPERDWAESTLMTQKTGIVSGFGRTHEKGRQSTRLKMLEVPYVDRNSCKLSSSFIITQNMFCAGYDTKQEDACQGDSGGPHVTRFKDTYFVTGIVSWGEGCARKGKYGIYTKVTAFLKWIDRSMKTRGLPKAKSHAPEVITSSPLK

B1: FIXa-D203N/F205T/R318Y (protein)
chain 1: not shown
chain 2: not shown
As for B1, the KM was determined as 0.0475 µM; the KM for FX activation by FIXa in the Xase complex (FVIIIa/PC-PS/Ca2+), fluorogenic Spectrafluor FXa assay is 0.0475 µM; the kcat came to 0.9 s⁻¹.

B2: FIXa-D104N/K106S/R318Y/R338E/E410N (protein)
chain 1: not shown
chain 2: not shown
Turning to B2, the “% of WT kcat/KM” value was 581% and 564%; the KM was 0.0189 µM; the KM for FX activation by FIXa in the Xase complex (FVIIIa/PC-PS/Ca2+), fluorogenic Spectrafluor FXa assay came out at 0.0189 µM; the kcat is 4.8 s⁻¹.

B3: FIXa-Y155F/R318Y/R403E/E410N (protein)
chain 1: not shown
chain 2: not shown
B3: the “% of WT kcat/KM” value worked out at 78%, the KM came out at 0.111 µM and the kcat is 2.9 s⁻¹.

B4: FIXa-Y155F/R318Y/R338E/E410N (protein)
chain 1: not shown
chain 2: not shown
B4: the “% of WT kcat/KM” value is 835% and 810%; the KM was 0.016 µM; the KM for FX activation by FIXa in the Xase complex (FVIIIa/PC-PS/Ca2+), fluorogenic Spectrafluor FXa assay was 0.016 µM; the kcat came out at 5.6 s⁻¹.

B5: FIXa-R318Y/R403E/E410N (protein)
chain 1: not shown
chain 2: not shown
On to B5, for which the “% of WT kcat/KM” value is 59% and 54%; the KM came out at 0.0942 µM; the KM for FX activation by FIXa in the Xase complex (FVIIIa/PC-PS/Ca2+), fluorogenic Spectrafluor FXa assay was found to be 0.0883 µM; the kcat amounted to 2.3 s⁻¹. The kcat/KM amounted to 2.7e+07 M⁻¹ s⁻¹.

B6: FIXa-D203N/F205T/R338E/R403E (protein)
chain 1: not shown
chain 2: not shown
Consider B6, for which the KM turned out to be 0.0511 µM; the KM for FX activation by FIXa in the Xase complex (FVIIIa/PC-PS/Ca2+), fluorogenic Spectrafluor FXa assay was 0.0511 µM; the kcat amounted to 0.9 s⁻¹.

B7: FIXa-K228N/R318Y/E410N (protein)
chain 1: not shown
chain 2: not shown
As to B7, the “% of WT kcat/KM” value is 272% and 264%; the KM is 0.042 µM; the KM for FX activation by FIXa in the Xase complex (FVIIIa/PC-PS/Ca2+), fluorogenic Spectrafluor FXa assay came out at 0.042 µM; the kcat came out at 5 s⁻¹.

B8: FIXa-D203N/F205T/R338A (protein)
chain 1: not shown
chain 2: not shown
With B8, the KM amounted to 0.0385 µM; the KM for FX activation by FIXa in the Xase complex (FVIIIa/PC-PS/Ca2+), fluorogenic Spectrafluor FXa assay was 0.0385 µM; the kcat is 2.3 s⁻¹.

For orientation: KM means the concentration of substrate that gives half-maximal velocity. As usually defined, the kcat is the maximal rate divided by the concentration of active sites. As a reminder, the kcat/KM is the turnover number divided by the Michaelis constant.

The values above are taken from US11491212.
